Data as given in patent publication US20260098075A1.
Positions count from the first letter of the chain named.

B1: R12 CAR with Spacer 15 (protein)
chain: QEQLVESGGRLVTPGGSLTLSCKASGFDFSAYYMSWVRQAPGKGLEWIATIYPSSGKTYYATWVNGRFTISSDNAQNTVDLQMNSLTAADRATYFCARDSYADDGALFNIWGPGTLVTISSGGGGSGGGGSGGGGSELVLTQSPSVSAALGSPAKITCTLSSAHKTDTIDWYQQLQGEAPRYLMQVQSDGSYTKRPGVPDRFSGSSSGADRYLIIPSVQADDEADYYCGADYIGGYVFGGGTQLTVTGGGGSGPPKPKDTMFWVLVVVGGVLACYSLLVTVAFIIFWVKRGRKKLLYIFKQPFMRPVQTTQEEDGCSCRFPEEEEGGCELRVKFSRSADAPAYQQGQNQLYNELNLGRREEYDVLDKRRGRDPEMGGKPRRKNPQEGLYNELQKDKMAEAYSEIGMKGERRRGKGHDGLYQGLSTATKDTYDALHMQALPPR
B2: R12 CAR with Spacer 21 (protein)
chain: B1 chain with P254V, K256C, K258V, D259P, T260P
B3: R11 CAR against ROR1 with Spacer 6 (protein)
chain: QSVKESEGDLVTPAGNLTLTCTASGSDINDYPISWVRQAPGKGLEWIGFINSGGSTWYASWVKGRFTISRTSTTVDLKMTSLTTDDTATYFCARGYSTYYGDFNIWGPGTLVTISSGGGGSGGGGSGGGGSELVMTQTPSSTSGAVGGTVTINCQASQSIDSNLAWFQQKPGQPPTLLIYRASNLASGVPSRFSGSRSGTEYTLTISGVQREDAATYYCLGGVGNVSYRTSFGGGTEVVVKTGGGGSGEPKSCDTPPPCPRCPEPKSCDTPPPCPRCPEPKSCDTPPPCPRCPAPMFWVLVVVGGVLACYSLLVTVAFIIFWVKRGRKKLLYIFKQPFMRPVQTTQEEDGCSCRFPEEEEGGCELRVKFSRSADAPAYQQGQNQLYNELNLGRREEYDVLDKRRGRDPEMGGKPRRKNPQEGLYNELQKDKMAEAYSEIGMKGERRRGKGHDGLYQGLSTATKDTYDALHMQALPPR
B4: 2A2 CAR against ROR1 with Spacer 21 (protein)
chain: QVQLQQSGAELVRPGASVTLSCKASGYTFSDYEMHWVIQTPVHGLEWIGAIDPETGGTAYNQKFKGKAILTADKSSSTAYMELRSLTSEDSAVYYCTGYYDYDSFTYWGQGTLVTVSAGGGGSGGGGSGGGGSDIVMTQSQKIMSTTVGDRVSITCKASQNVDAAVAWYQQKPGQSPKLLIYSASNRYTGVPDRFTGSGSGTDFTLTISNMQSEDLADYFCQQYDIYPYTFGGGTKLEIKTGGGGSGVPCPVPPMFWVLVVVGGVLACYSLLVTVAFIIFWVKRGRKKLLYIFKQPFMRPVQTTQEEDGCSCRFPEEEEGGCELRVKFSRSADAPAYQQGQNQLYNELNLGRREEYDVLDKRRGRDPEMGGKPRRKNPQEGLYNELQKDKMAEAYSEIGMKGERRRGKGHDGLYQGLSTATKDTYDALHMQALPPR
B5: 2A2 CAR against ROR1 with Spacer 28 (protein)
chain: QVQLQQSGAELVRPGASVTLSCKASGYTFSDYEMHWVIQTPVHGLEWIGAIDPETGGTAYNQKFKGKAILTADKSSSTAYMELRSLTSEDSAVYYCTGYYDYDSFTYWGQGTLVTVSAGGGGSGGGGSGGGGSDIVMTQSQKIMSTTVGDRVSITCKASQNVDAAVAWYQQKPGQSPKLLIYSASNRYTGVPDRFTGSGSGTDFTLTISNMQSEDLADYFCQQYDIYPYTFGGGTKLEIKTGGGGSGSVCSRDFTPPMFWVLVVVGGVLACYSLLVTVAFIIFWVKRGRKKLLYIFKQPFMRPVQTTQEEDGCSCRFPEEEEGGCELRVKFSRSADAPAYQQGQNQLYNELNLGRREEYDVLDKRRGRDPEMGGKPRRKNPQEGLYNELQKDKMAEAYSEIGMKGERRRGKGHDGLYQGLSTATKDTYDALHMQALPPR
B6: R11 CAR against ROR1 with Spacer 4 (protein)
chain: QSVKESEGDLVTPAGNLTLTCTASGSDINDYPISWVRQAPGKGLEWIGFINSGGSTWYASWVKGRFTISRTSTTVDLKMTSLTTDDTATYFCARGYSTYYGDFNIWGPGTLVTISSGGGGSGGGGSGGGGSELVMTQTPSSTSGAVGGTVTINCQASQSIDSNLAWFQQKPGQPPTLLIYRASNLASGVPSRFSGSRSGTEYTLTISGVQREDAATYYCLGGVGNVSYRTSFGGGTEVVVKTGGGGSGELKTPLGDTTHTCPRCPEPKSCDTPPPCPRCPEPKSCDTPPPCPRCPEPKSCDTPPPCPRCPAPMFWVLVVVGGVLACYSLLVTVAFIIFWVKRGRKKLLYIFKQPFMRPVQTTQEEDGCSCRFPEEEEGGCELRVKFSRSADAPAYQQGQNQLYNELNLGRREEYDVLDKRRGRDPEMGGKPRRKNPQEGLYNELQKDKMAEAYSEIGMKGERRRGKGHDGLYQGLSTATKDTYDALHMQALPPR
B7: 2A2 CAR against ROR1 with Spacer 13 (protein)
chain: QVQLQQSGAELVRPGASVTLSCKASGYTFSDYEMHWVIQTPVHGLEWIGAIDPETGGTAYNQKFKGKAILTADKSSSTAYMELRSLTSEDSAVYYCTGYYDYDSFTYWGQGTLVTVSAGGGGSGGGGSGGGGSDIVMTQSQKIMSTTVGDRVSITCKASQNVDAAVAWYQQKPGQSPKLLIYSASNRYTGVPDRFTGSGSGTDFTLTISNMQSEDLADYFCQQYDIYPYTFGGGTKLEIKTGGGGSGPCPRCPAPMFWVLVVVGGVLACYSLLVTVAFIIFWVKRGRKKLLYIFKQPFMRPVQTTQEEDGCSCRFPEEEEGGCELRVKFSRSADAPAYQQGQNQLYNELNLGRREEYDVLDKRRGRDPEMGGKPRRKNPQEGLYNELQKDKMAEAYSEIGMKGERRRGKGHDGLYQGLSTATKDTYDALHMQALPPR
B8: R11 CAR against ROR1 with Spacer 5 (protein)
chain: QSVKESEGDLVTPAGNLTLTCTASGSDINDYPISWVRQAPGKGLEWIGFINSGGSTWYASWVKGRFTISRTSTTVDLKMTSLTTDDTATYFCARGYSTYYGDFNIWGPGTLVTISSGGGGSGGGGSGGGGSELVMTQTPSSTSGAVGGTVTINCQASQSIDSNLAWFQQKPGQPPTLLIYRASNLASGVPSRFSGSRSGTEYTLTISGVQREDAATYYCLGGVGNVSYRTSFGGGTEVVVKTGGGGSGCPRCPEPKSCDTPPPCPRCPEPKSCDTPPPCPRCPEPKSCDTPPPCPRCPAPMFWVLVVVGGVLACYSLLVTVAFIIFWVKRGRKKLLYIFKQPFMRPVQTTQEEDGCSCRFPEEEEGGCELRVKFSRSADAPAYQQGQNQLYNELNLGRREEYDVLDKRRGRDPEMGGKPRRKNPQEGLYNELQKDKMAEAYSEIGMKGERRRGKGHDGLYQGLSTATKDTYDALHMQALPPR
B9: R12 CAR with Spacer 1 (ROR1-specific R12 scFv, Gly-Ser linker, Spacer 1, CD28-derived transmembrane domain, 4-1BB costimulatory domain, CD3 zeta signaling … (protein)
chain: QEQLVESGGRLVTPGGSLTLSCKASGFDFSAYYMSWVRQAPGKGLEWIATIYPSSGKTYYATWVNGRFTISSDNAQNTVDLQMNSLTAADRATYFCARDSYADDGALFNIWGPGTLVTISSGGGGSGGGGSGGGGSELVLTQSPSVSAALGSPAKITCTLSSAHKTDTIDWYQQLQGEAPRYLMQVQSDGSYTKRPGVPDRFSGSSSGADRYLIIPSVQADDEADYYCGADYIGGYVFGGGTQLTVTGGGGSGKPCPPCKCPMFWVLVVVGGVLACYSLLVTVAFIIFWVKRGRKKLLYIFKQPFMRPVQTTQEEDGCSCRFPEEEEGGCELRVKFSRSADAPAYQQGQNQLYNELNLGRREEYDVLDKRRGRDPEMGGKPRRKNPQEGLYNELQKDKMAEAYSEIGMKGERRRGKGHDGLYQGLSTATKDTYDALHMQALPPR

molecular target: human ROR1 (tyrosine-protein kinase transmembrane receptor ROR1) (human), Q01973; assay: cell-based or functional assay
Sequence (Q01973 30-937): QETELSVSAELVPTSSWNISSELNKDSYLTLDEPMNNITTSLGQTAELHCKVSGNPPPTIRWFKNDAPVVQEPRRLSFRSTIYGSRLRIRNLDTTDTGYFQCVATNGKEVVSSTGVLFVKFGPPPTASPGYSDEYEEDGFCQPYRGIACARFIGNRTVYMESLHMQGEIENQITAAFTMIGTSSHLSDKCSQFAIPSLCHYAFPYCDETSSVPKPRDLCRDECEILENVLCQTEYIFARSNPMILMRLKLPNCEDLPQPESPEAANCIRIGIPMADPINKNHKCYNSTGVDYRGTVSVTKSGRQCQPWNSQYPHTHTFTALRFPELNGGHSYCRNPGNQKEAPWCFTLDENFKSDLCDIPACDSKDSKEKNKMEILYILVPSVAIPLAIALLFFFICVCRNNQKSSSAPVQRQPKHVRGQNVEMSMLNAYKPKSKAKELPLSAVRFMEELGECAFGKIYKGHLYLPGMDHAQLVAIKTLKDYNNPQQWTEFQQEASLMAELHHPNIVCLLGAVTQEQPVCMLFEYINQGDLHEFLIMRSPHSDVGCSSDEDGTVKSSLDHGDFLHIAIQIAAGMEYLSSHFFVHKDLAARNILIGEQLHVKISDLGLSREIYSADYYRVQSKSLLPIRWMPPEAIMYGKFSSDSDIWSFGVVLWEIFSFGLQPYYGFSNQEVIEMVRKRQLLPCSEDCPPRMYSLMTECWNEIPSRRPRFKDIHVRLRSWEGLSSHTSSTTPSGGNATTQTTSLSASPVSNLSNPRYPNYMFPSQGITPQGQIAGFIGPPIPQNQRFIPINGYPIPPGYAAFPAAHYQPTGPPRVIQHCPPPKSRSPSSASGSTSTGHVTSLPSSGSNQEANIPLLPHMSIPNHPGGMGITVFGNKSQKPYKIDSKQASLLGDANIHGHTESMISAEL

A549 IFNg, donor 2735 | A549 IFNg, donor 5018 | A549 IL-2, donor 2735 | A549 IL-2, donor 5018 | A549 normalized AUC, donor 2735 | A549 normalized AUC, donor 5018 | H1975 IFNg, donor 2735 | H1975 IFNg, donor 5018 | H1975 IL-2, donor 2735 | H1975 IL-2, donor 5018 | Binder
13800 | 7610 | 8 | 9 | 64 | 81.2 | 16900 | 4320 | 17 | 10 | B1
14100 | 5000 | 7 | 8 | 66.3 | 85 | 23200 | 2650 | 26 | 7 | B2
 | 46300 |  | 10 |  | 58.4 |  | 7170 |  | 1 | B3
 | 41300 |  | 3 |  | 58.9 |  | 61900 |  | 13 | B4
 | 34200 |  | 2 |  | 61 |  | 58100 |  | 8 | B5
 | 37000 |  | 5 |  | 59.1 |  | 9130 |  | 1 | B6
 | 38900 |  | 3 |  | 61 |  | 54300 |  | 14 | B7
 | 60900 |  | 10 |  | 55.8 |  | 17300 |  | 2 | B8
8940 | 4350 | 4 | 0 | 67.6 | 80.9 | 15700 | 4850 | 10 | 0 | B9

same assay, conditions: not given

H1975 normalized AUC, donor 2735 | H1975 normalized AUC, donor 5018 | A549 IFNg, donor 7811 | A549 IL-2, donor 7811 | A549 normalized AUC, donor 7811 | H1975 IFNg, donor 7811 | H1975 IL-2, donor 7811 | H1975 normalized AUC, donor 7811 | A549 IFNg, donor 2089 | A549 IL-2, donor 2089 | Binder
63 | 75 |  |  |  |  |  |  |  |  | B1
61.5 | 77.4 |  |  |  |  |  |  |  |  | B2
 | 114 | 86700 | 89 | 51.4 | 11900 | 2 | 96.5 |  |  | B3
 | 43.2 |  |  |  |  |  |  | 55400 | 1 | B4
 | 44.3 |  |  |  |  |  |  | 49900 | 1 | B5
 | 94.5 | 46200 | 26 | 54.6 | 15900 | 4 | 83.1 |  |  | B6
 | 43.2 |  |  |  |  |  |  | 46600 | 1 | B7
 | 86.7 | 83600 | 87 | 48.8 | 32400 | 16 | 69.6 |  |  | B8
67.6 | 68.8 |  |  |  |  |  |  |  |  | B9

same assay, conditions: not given

A549 normalized AUC, donor 2089 | H1975 IFNg, donor 2089 | H1975 IL-2, donor 2089 | H1975 normalized AUC, donor 2089 | Binder
38 | 78000 | 2 | 39.4 | B4
43.6 | 78300 | 1 | 39.5 | B5
42 | 67100 | 1 | 37.9 | B7
